Assay [1] has as its target recombinant CD3 proteins. Briefly: Octet (BLI), bispecific antibody against recombinant CD3 proteins; Full R^2 0.00. A general note: BLI is a label-free optical method that tracks binding on a fibre tip over time.
In assay [2] the target is recombinant CD3 proteins. Nature of the assay: Octet (BLI), bispecific antibody against recombinant CD3 proteins.
Assay [3] has as its target CD3 on effector cells (human Pan-T or PBMC) (human, UniProt P07766 23-207; P04234 22-171; P09693 23-182; P20963 22-164). Nature of the assay: cell-based or functional assay.
Assay [4] has as its target T1, recombinant human CD3 epsilon/gamma heterodimer (human, UniProt P07766 23-126; P09693 23-116).
T1 construct: Recombinant protein in solution (200-50 nM) in the Octet assay; also called hCD3 E/G
Briefly: Octet BLI, mAb on FAB2G sensor, hCD3 E/G 200-50 nM; R^2 0.59.

Assay [5] has as its target T2, recombinant human CD3 epsilon/delta heterodimer (human, UniProt P07766 23-126; P04234 22-105).
T2 construct: Recombinant protein in solution (200-50 nM) in the Octet assay; also called hCD3 E/D; human CD3E/D
Briefly: Octet BLI, mAb on FAB2G sensor, hCD3 E/D 200-50 nM; R^2 0.92.

Assay [6] deals with T1, recombinant human CD3 epsilon/gamma …. Nature of the assay: Octet BLI, mAb on FAB2G sensor, hCD3 E/G 200-50 nM; R^2 0.76.
For assay [7], the target named is T2, recombinant human CD3 epsilon/delta …. Briefly: Octet BLI, mAb on FAB2G sensor, hCD3 E/D 200-50 nM; R^2 1.00.
For assay [8] the target is unchanged. Nature of the assay: Octet BLI, mAb on FAB2G sensor, hCD3 E/D 200-50 nM; R^2 0.98.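 Also: antibodies purified from hybridoma supernatants, measured by Octet binding to recombinant human CD3 protein.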
Assay [9] concerns the target T1, recombinant human CD3 epsilon/gamma …. Briefly: Octet BLI, mAb on FAB2G sensor, hCD3 E/G 200-50 nM; R^2 0.95.
Assay [10] has the same target. Briefly: Octet BLI, mAb on FAB2G sensor, hCD3 E/G 200-50 nM; R^2 0.90.
Assay [11] shares this target. Nature of the assay: Octet BLI, mAb on FAB2G sensor, hCD3 E/G 200-50 nM; R^2 0.00.

T1 sequence (P07766 23-126, chain 1 of 2): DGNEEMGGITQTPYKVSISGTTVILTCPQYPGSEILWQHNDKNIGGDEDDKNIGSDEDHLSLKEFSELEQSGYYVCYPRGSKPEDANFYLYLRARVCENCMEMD
T1 sequence (P09693 23-116, chain 2 of 2): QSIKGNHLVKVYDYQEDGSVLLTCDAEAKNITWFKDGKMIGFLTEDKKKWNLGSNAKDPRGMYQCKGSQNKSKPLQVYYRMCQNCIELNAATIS
T2 sequence (P07766 23-126, stated change not applied, chain 1 of 2): as the sequence (P07766 23-126, chain 1 of 2) above
T2 sequence (P04234 22-105, stated change not applied, chain 2 of 2): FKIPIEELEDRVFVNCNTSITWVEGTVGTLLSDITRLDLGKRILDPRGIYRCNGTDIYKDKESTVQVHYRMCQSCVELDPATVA
CD3 on effector cells (human Pan-T or PBMC), sequence (P07766 23-207, chain 1 of 4): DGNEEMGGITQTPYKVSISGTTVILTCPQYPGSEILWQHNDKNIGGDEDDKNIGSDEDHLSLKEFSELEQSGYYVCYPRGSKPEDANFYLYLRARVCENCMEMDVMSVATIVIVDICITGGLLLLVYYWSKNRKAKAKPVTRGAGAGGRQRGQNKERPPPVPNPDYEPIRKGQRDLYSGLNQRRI
CD3 on effector cells (human Pan-T or PBMC), sequence (P04234 22-171, chain 2 of 4): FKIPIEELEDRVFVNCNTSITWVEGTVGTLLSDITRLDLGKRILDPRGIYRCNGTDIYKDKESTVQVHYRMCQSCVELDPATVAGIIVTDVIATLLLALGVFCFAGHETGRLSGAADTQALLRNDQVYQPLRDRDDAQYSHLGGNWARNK
CD3 on effector cells (human Pan-T or PBMC), sequence (P09693 23-182, chain 3 of 4): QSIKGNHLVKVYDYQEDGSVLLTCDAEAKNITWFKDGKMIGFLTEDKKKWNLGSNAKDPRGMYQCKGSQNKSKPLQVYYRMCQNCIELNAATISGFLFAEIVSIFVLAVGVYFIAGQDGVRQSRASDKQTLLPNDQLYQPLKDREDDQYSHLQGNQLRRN
CD3 on effector cells (human Pan-T or PBMC), sequence (P20963 22-164, chain 4 of 4): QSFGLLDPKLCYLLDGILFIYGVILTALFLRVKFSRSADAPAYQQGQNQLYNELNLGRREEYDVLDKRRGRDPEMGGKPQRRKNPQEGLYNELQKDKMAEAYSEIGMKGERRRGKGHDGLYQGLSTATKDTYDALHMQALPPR

B1: CD3 × CD33-BspAb66 (bispecific antibody, human IgG1, kappa)
scFv: EVQLVESGGGLVQPGRSLRLSCAASGFTFDDYAMHWVRQAPGKGLEWVSGISWNSGSIGYADSVKGRFTISRDNAKNSLYLQMNSLRAEDTALYYCAKDSRGYGDYRLGGAYWGQGTLVTVSSGGGGSGGGGSGGGGSGGGGSEIVMTQSPATLSVSPGERATLSCRASQSVSSNLAWYQQKPGQAPRLLIYGASTRATGIPARFSGSGSGTEFTLTISSLQSEDFAVYYCQQYNNWPWTFGQGTKVEIKTSGPGGPDKTHTCPPCPAPEFEGGPSVFLFPPKPKDTLMISRTPEVTCVVVDVSHEDPEVKFNWYVDGVEVHNAKTKPREEQYNSTYRVVSVLTVLHQDWLNGKEYKCKVSNKALPASIEKTISKAKGQPREPQVYTLPPCREEMTKNQVSLWCLVKGFYPSDIAVEWESNGQPENNYKTTPPVLDSDGSFFLYSKLTVDKSRWQQGNVFSCSVMHEALHNHYTQKSLSLSPGK
heavy: EVQLVQSGAEVKKPGSSVKVSCKASGYTITDSNIHWVRQAPGQSLEWIGYIYPYNGGTDYNQKFKNRATLTVDNPTNTAYMELSSLRSEDTAFYYCVNGNPWLAYWGQGTLVTVSSASTKGPSVFPLAPSSKSTSGGTAALGCLVKDYFPEPVTVSWNSGALTSGVHTFPAVLQSSGLYSLSSVVTVPSSSLGTQTYICNVNHKPSNTKVDKRVEPKSCDKTHTCPPCPAPEFEGGPSVFLFPPKPKDTLMISRTPEVTCVVVDVSHEDPEVKFNWYVDGVEVHNAKTKPREEQYNSTYRVVSVLTVLHQDWLNGKEYKCKVSNKALPASIEKTISKAKGQPREPQVCTLPPSREEMTKNQVSLSCAVKGFYPSDIAVEWESNGQPENNYKTTPPVLDSDGSFFLVSKLTVDKSRWQQGNVFSCSVMHEALHNRFTQKSLSLSPGK
light: DIQLTQSPSTLSASVGDRVTITCRASESLDNYGIRFLTWFQQKPGKAPKLLMYAASNQGSGVPSRFSGSGSGTEFTLTISSLQPDDFATYYCQQTKEVPWSFGQGTKVEVKRTVAAPSVFIFPPSDEQLKSGTASVVCLLNNFYPREAKVQWKVDNALQSGNSQESVTEQDSKDSTYSLSSTLTLSKADYEKHKVYACEVTHQGLSSPVTKSFNRGEC
notes: also called CD3δε-specific control antibody scFv-Fc knob/TM; CD3xCD33-BspAb66
On to B1, for which, in the assay with recombinant CD3 proteins [1], the dissociation constant (Kd) came to 0.854 nM, the dissociation rate constant (koff) was determined as 1.07e-05 s⁻¹ and the on-rate constant (kon) is 12500 M⁻¹ s⁻¹. Also, the Response with recombinant CD3 proteins [2] was 0.03. Besides, the “RTCC EC50 (nM), KILR HL-60 T Cell Redirection cytotoxic assay with CD33-expressing target cells” value in assay [3] came to 25.4 nM.

B2: ABL-CD3-37 (antibody, V domains shown)
VH: EVQLVESGGGLVQPGGSLRLSCAASGFSFSSYSMNWVRQAPGKGLEWVSHIRSSTYSIYYADSVMGRFTISRDNAKNSLYLQMNSLRDEDTAVYFCARAKTGGDAFDIWGQGTMVTVSS
VL: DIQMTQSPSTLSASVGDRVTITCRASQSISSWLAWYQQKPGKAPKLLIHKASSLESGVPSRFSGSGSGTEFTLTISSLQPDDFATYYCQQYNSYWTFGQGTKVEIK
notes: Chimeric hybridoma mAb: human V, CH1, upper hinge; mouse middle hinge, CH2, CH3
On to B2, for which, in assay [4], the Kd is 1.43 nM, the off-rate (koff) is 0.00269 s⁻¹ and the association rate constant (kon) amounted to 1.89e+06 M⁻¹ s⁻¹. Besides, in assay [5], the Kd is 17.8 nM, the off-rate (koff) is 0.00404 s⁻¹ and the kon came out at 227000 M⁻¹ s⁻¹.

B3: ABL-CD3-36 (antibody, V domains shown)
VH: EVQLVESGGGLVQRGGSLRLSCAASGFTFSNYWMSWVRQAPGKGLEWVANIKEDGSEKYCVDSVKGRFTISRDNAKHSLYLQMNSLRAEDTAVYYCARERRTGYFDYWGQGTLVTVSS
VL: DIQMTQSPSTLSASVGDRVTITCRASQSISSWLAWFQQKTGKAPKLLIYKASSLESGVPSRFSGSGSGTEFTLTISSLQPDDFATYYCQQYISYSWTFGQGTKVEIK
notes: as for B2
B3: in assay [6], the Kd was determined as 4.18 nM, the koff was determined as 0.00729 s⁻¹ and the kon is 1.74e+06 M⁻¹ s⁻¹. Besides, in assay [7], the dissociation constant (Kd) was determined as 25 nM, the Response was 0.49, the off-rate constant (koff) was determined as 0.00101 s⁻¹ and the association rate constant (kon) was determined as 40400 M⁻¹ s⁻¹.

B4: ABL-CD3-61 (antibody, V domains shown)
VH: EVQLVESGGGLVKPGGSLRLSCAASGFTFSSYSMNWVRQAPGKGLEWVSSISRSGTYIYYADSVKGRFTISRDNAKNSLYLQMNSLRAEDTAVYYCARERWELLYFDYWGQGTLVTVSS
VL: QTVVTQEPSLTVSPGGTVTLTCASSTGAVTSGYYPNWFQQKPGQAPRALIYSTSNKHSWTPARFSGSLLGGKAALTLSGVQPEDEAEYYCLLYYGGAYVFGTGTKVTVL
notes: as for B2
In the case of B4, in assay [8], the Kd was 117 nM, the Response turned out to be 0.26, the dissociation rate constant (koff) amounted to 0.0218 s⁻¹ and the kon worked out at 187000 M⁻¹ s⁻¹. In assay [9], the dissociation constant (Kd) amounted to 69.2 nM, the koff turned out to be 0.0402 s⁻¹ and the kon is 581000 M⁻¹ s⁻¹.

B5: ABL-CD3-44 (antibody, V domains shown)
VH: EVQLVESGGGLVQPGGSLRLSCAASGFTFSTYWMSWVRQAPGKGLEWVANIKQDGSEKYYVDSVKGRFTISRDNAKNSLYLQMNSLRAEDTAVYYCATGSFDYWGQGTLVTVSS
VL: QPVLTQPSSHSASSGASVRLTCMLSSGFSVGDFWIRWYQQKPGNPPRYLLFYHSDSNKGQGSGVPSRFSGSNDASANAGILRISGLQPEDEADYYCGTWHSNSKTWVFGGGTKLTVL
notes: as for B2
For the molecule B5, in assay [8], the equilibrium dissociation constant (Kd) is 356 nM, the Response is 0.03, the off-rate (koff) was determined as 0.000184 s⁻¹ and the kon is 517 M⁻¹ s⁻¹. Moreover, the Kd in [10] was less than 0.001 nM.

B6: ABL-CD3-39 (antibody, V domains shown)
VH: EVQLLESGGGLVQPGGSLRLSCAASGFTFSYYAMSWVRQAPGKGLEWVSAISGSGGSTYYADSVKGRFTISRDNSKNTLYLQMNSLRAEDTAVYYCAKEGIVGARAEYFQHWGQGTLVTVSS
VL: DVVMTQSPLSLPVTLGQPASISCRSSQSLVYSDGNTYLTWFQQRPGQSPRRLIYKVSNRDSGVPDRFSGSGSGTDFTLKISRVEAEDVEIYYCMQGTHWPLTFGGGTKVEIK
notes: as for B2
On to B6, for which, in assay [11], the Kd is less than 0.001 nM, the koff is less than 1e-07 s⁻¹ and the kon stood at 50000 M⁻¹ s⁻¹. In assay [7], the equilibrium dissociation constant (Kd) came out at 8.32 nM, the Response was 0.41, the koff came out at 0.000307 s⁻¹ and the kon was 36900 M⁻¹ s⁻¹.

One may read the Kd as the equilibrium constant for the complex coming apart. One may read the koff as the rate constant with which the complex falls apart. The kon is the second-order rate constant of association.
